Experimental data taken from patent US20250152746A1, “BASE EDITING OF ANGPTL3 AND METHODS OF USING SAME FOR TREATMENT OF DISEASE” (Verve Therapeutics, Inc., priority 2020, published 2025).
m = 2'-O-methyl; r = 2'-OH (RNA)

B1: GA197: PCSK9 gRNA; protospacer AGTGACCACCGGGAAATCGA (SEQ ID NO: 191) (nucleic acid)
guide: AGUGACCACCGGGAAAUCGAGUUUUAGAGCUAGAAAUAGCAAGUUAAAAUAAGGCUAGUCCGUUAUCAACUUGAAAAAGUGGCACCGAGUCGGUGCUUUU
modifications: sugars from the 5' end m3 r94 m3, linkages s3 o93 s3 (s phosphorothioate, o phosphodiester), T or U not given here
B2: GA198: PCSK9 gRNA; protospacer CCACCGGGAAATCGAGGGCA (SEQ ID NO: 192) (nucleic acid)
guide: CCACCGGGAAAUCGAGGGCAGUUUUAGAGCUAGAAAUAGCAAGUUAAAAUAAGGCUAGUCCGUUAUCAACUUGAAAAAGUGGCACCGAGUCGGUGCUUUU
modifications: sugars from the 5' end m3 r94 m3, linkages s3 o93 s3 (s phosphorothioate, o phosphodiester), T or U not given here
B3: GA199: PCSK9 gRNA; protospacer GAAGCGGGTCCCGTCCTCCT (SEQ ID NO: 193) (nucleic acid)
guide: GAAGCGGGUCCCGUCCUCCUGUUUUAGAGCUAGAAAUAGCAAGUUAAAAUAAGGCUAGUCCGUUAUCAACUUGAAAAAGUGGCACCGAGUCGGUGCUUUU
modifications: sugars from the 5' end m3 r94 m3, linkages s3 o93 s3 (s phosphorothioate, o phosphodiester), T or U not given here
B4: GA200: PCSK9 gRNA; protospacer CTAGGAGATACACCTCCACC (SEQ ID NO: 194) (nucleic acid)
guide: CUAGGAGAUACACCUCCACCGUUUUAGAGCUAGAAAUAGCAAGUUAAAAUAAGGCUAGUCCGUUAUCAACUUGAAAAAGUGGCACCGAGUCGGUGCUUUU
modifications: sugars from the 5' end m3 r94 m3, linkages s3 o93 s3 (s phosphorothioate, o phosphodiester), T or U not given here
B5: GA201: PCSK9 gRNA; protospacer CAGCATACAGAGTGACCACC (SEQ ID NO: 195) (nucleic acid)
guide: CAGCAUACAGAGUGACCACCGUUUUAGAGCUAGAAAUAGCAAGUUAAAAUAAGGCUAGUCCGUUAUCAACUUGAAAAAGUGGCACCGAGUCGGUGCUUUU
modifications: sugars from the 5' end m3 r94 m3, linkages s3 o93 s3 (s phosphorothioate, o phosphodiester), T or U not given here
B6: GA202: PCSK9 gRNA; protospacer AAGCGGGTCCCGTCCTCCTC (SEQ ID NO: 196) (nucleic acid)
guide: AAGCGGGUCCCGUCCUCCUCGUUUUAGAGCUAGAAAUAGCAAGUUAAAAUAAGGCUAGUCCGUUAUCAACUUGAAAAAGUGGCACCGAGUCGGUGCUUUU
modifications: sugars from the 5' end m3 r94 m3, linkages s3 o93 s3 (s phosphorothioate, o phosphodiester), T or U not given here

What was measured:
PCSK9 gene [1] = assay: PCSK9 gRNA/SpCas9 editing in primary human hepatocytes (Tables 2, 4); type: cell-based; settings: SpCas9 mRNA MS002 1:1 by weight; for Human Primary Hepatocyte Editing % 100: 100 ng/RNA/mL; for Human Primary Hepatocyte Editing % 500: 500 ng/RNA/mL; for Human Primary Hepatocyte Editing % 2500: 2500 ng/RNA/mL
Outline: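 Primary human hepatocytes co-transfected with PCSK9 gRNA plus SpCas9 mRNA (1:1 by weight) at 2500, 500 or 100 ng RNA/mL, or 2500–250 ng/mL for tracr-modified guides. Editing at the target site read by amplicon next-generation sequencing of extracted genomic DNA.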

PCSK9 gene [2] = assay: PCSK9 gRNA/SpCas9 editing in primary cynomolgus hepatocytes (Tables 2, 22); type: cell-based, cynomolgus monkey; settings: SpCas9 mRNA MS002 1:1 by weight; for Cyno Primary Hepatocyte Editing % 100: 100 ng/RNA/mL; for Cyno Primary Hepatocyte Editing % 500: 500 ng/RNA/mL; for Cyno Primary Hepatocyte Editing % 2500: 2500 ng/RNA/mL

Molecule | Human Primary Hepatocyte Editing % 100 (PCSK9 gene [1]) [%] | Human Primary Hepatocyte Editing % 500 (PCSK9 gene [1]) [%] | Human Primary Hepatocyte Editing % 2500 (PCSK9 gene [1]) [%] | Cyno Primary Hepatocyte Editing % 100 (PCSK9 gene [2]) [%] | Cyno Primary Hepatocyte Editing % 500 (PCSK9 gene [2]) [%] | Cyno Primary Hepatocyte Editing % 2500 (PCSK9 gene [2]) [%]
B1 | 1.22 | 3.29 | 15.03 | 0.9 | 3.89 | 18.21
B2 | 0.04 | 10.58 | 30.93 | 3.53 | 16.15 | 49
B3 | 1.17 | 6.89 | 29.95 | 3.07 | 15.11 | 45.32
B4 | 3.8 | 8.68 | 5.31 | 5.15 | 20.51 | 54.36
B5 | 3.29 | 12.92 | 31.51 | 4.33 | 14.37 | 44.01
B6 | 2.54 | 10.75 | 34.75 | 1.54 | 8.91 | 31.13
